Measured values taken from article PMC6009666, “DNA-mediated dimerization on a compact sequence signature controls enhancer engagement and regulation by FOXA1”.

Experiments:
FOXA1 DBD [1] = target: T1, FOXA1 DBD (Homo sapiens, UniProt P55317 158-272); assay: EMSA; conditions: monomer binding not affected; EMSA: 20 mM Tris-HCl pH 8.0, 100 mM KCl, 50 uM ZnCl2, 0.1 mg/ml BSA, 10% glycerol, 0.1% Igepal CA630, 2 mM beta-mercaptoethanol, 1 h at 4 C; 1-100 nM dsDNA; 12%
T1 sequence: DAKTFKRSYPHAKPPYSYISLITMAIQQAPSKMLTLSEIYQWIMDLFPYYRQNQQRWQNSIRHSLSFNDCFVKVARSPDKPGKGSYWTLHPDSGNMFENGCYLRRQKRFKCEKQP

FOXA1 DBD [2] = target: T1, FOXA1 DBD; assay: EMSA; 1 nM DNA; monomer; n=3; EMSA: 20 mM Tris-HCl pH 8.0, 100 mM KCl, 50 uM ZnCl2, 0.1 mg/ml BSA, 10% glycerol, 0.1% Igepal CA630, 2 mM beta-mercaptoethanol, 1 h at 4 C; 1-100 nM dsDNA; 12% native PAGE (6% for full length); conditions: protein: recombinant; tags: His-tag implied (pNic28-Bsa4, Ni-NTA); label: 5' Cy5 forward strand

Q: With rs2941742 minor allele as the molecule, how does the binding signal (fold reduction of omega vs major allele) (FOXA1 DBD [1]) read?
A: 20

B1: FOXA1 monomer element (dsDNA)
DNA 1: CCGCCGCCGTGTTTACTTTGCCGCCGCC
DNA 2: GGCGGCGGCAAAGTAAACACGGCGGCGG
Q: B1 was tested. Which Kd (FOXA1 DBD [2]) did it give?
A: 2.4 ± 1.06 nM
